Reference: publication doi:10.1101/2020.08.06.225375 (bioRxiv, 2020)

B1: M. smegmatis ATP synthase subunit a (natural protein)
chain: MLAAEEGGAAIHVGHHTLVFELFGMTFNGDTILATAVTAVIVIALAFYLRAKVTSTGVPSGVQLFWEALTIQMRQQIEGSIGMKIAPFVLPLSVTIFVFILISNWLAVLPLQYGGADGAAAELYKAPASDINFVLALALFVFVCYHAAGIWRRGIVGHPIKVVKGHVAFLAPINIVEELAKPISLALRLFGNIFAGGILVALIAMFPWYIQWFPNAVWKTFDLFVGLIQAFIFSLLTILYFSQSMELDHEDH
B2: M. smegmatis ATP synthase subunit b-δ (b-δ fusion protein) (natural protein)
chain: MSIFIGQLIGFAVIAFIIVKWVVPPVRTLMRNQQEAVRAALAESAEAAKKLADADAMHAKALADAKAESEKVTEEAKQDSERIAAQLSEQAGSEAERIKAQGAQQIQLMRQQLIRQLRTGLGAEAVNKAAEIVRAHVADPQAQSATVDRFLSELEQMAPSSVVIDTAATSRLRAASRQSLAALVEKFDSVAGGLDADGLTNLADELASVAKLLLSETALNKHLAEPTDDSAPKVRLLERLLSDKVSATTLDLLRTAVSNRWSTESNLIDAVEHTARLALLKRAEIAGEVDEVEEQLFRFGRVLDAEPRLSALLSDYTTPAEGRVALLDKALTGRPGVNQTAAALLSQTVGLLRGERADEAVIDLAELAVSRRGEVVAHVSAAAELSDAQRTRLTEVLSRIYGRPVSVQLHVDPELLGGLSITVGDEVIDGSIASRLAAAQTGLPD
B3: M. smegmatis ATP synthase subunit β with C-terminal 3×FLAG tag (natural protein)
chain: MTATAEKTAGRVVRITGPVVDVEFPRGSVPELFNALHAEITFGALAKTLTLEVAQHLGDSLVRCISMQPTDGLVRGVEVTDTGASISVPVGDGVKGHVFNALGDCLDDPGYGKDFEHWSIHRKPPAFSDLEPRTEMLETGLKVVDLLTPYVRGGKIALFGGAGVGKTVLIQEMINRIARNFGGTSVFAGVGERTREGNDLWVELADANVLKDTALVFGQMDEPPGTRMRVALSALTMAEFFRDEQGQDVLLFIDNIFRFTQAGSEVSTLLGRMPSAVGYQPTLADEMGELQERITSTRGRSITSMQAVYVPADDYTDPAPATTFAHLDATTELSRAVFSKGIFPAVDPLASSSTILDPAIVGDEHYRVAQEVIRILQRYKDLQDIIAILGIDELSEEDKQLVNRARRIERFLSQNMMAAEQFTGQPGSTVPLKETIEAFDKLTKGEFDHLPEQAFFLIGGLDDLAKKAESLGAKL

Key:
Assay in all cases: cryo-EM structure
[1] = molecular target: M. smegmatis ATP synthase subunit α (M. smegmatis, UniProt A0R202 1-548)
[2] = molecular target: B3
[3] = molecular target: B2
[4] = molecular target: B1
cryo-EM structure = molecular target: the molecule itself

Sequence of M. smegmatis ATP synthase subunit α (A0R202 whole entry): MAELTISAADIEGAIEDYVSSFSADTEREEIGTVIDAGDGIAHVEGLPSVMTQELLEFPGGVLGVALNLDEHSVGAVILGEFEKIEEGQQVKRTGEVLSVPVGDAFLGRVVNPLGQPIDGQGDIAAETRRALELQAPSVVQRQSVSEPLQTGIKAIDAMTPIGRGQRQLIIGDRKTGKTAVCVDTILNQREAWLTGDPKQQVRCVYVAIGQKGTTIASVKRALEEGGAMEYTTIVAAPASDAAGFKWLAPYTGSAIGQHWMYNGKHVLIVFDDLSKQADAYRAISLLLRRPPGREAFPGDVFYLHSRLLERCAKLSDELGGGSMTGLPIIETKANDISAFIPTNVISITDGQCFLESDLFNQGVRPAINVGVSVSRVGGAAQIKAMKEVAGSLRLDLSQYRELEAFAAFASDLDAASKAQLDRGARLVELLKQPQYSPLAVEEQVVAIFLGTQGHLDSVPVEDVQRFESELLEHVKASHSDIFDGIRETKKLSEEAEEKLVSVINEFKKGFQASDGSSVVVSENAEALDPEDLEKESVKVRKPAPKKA

Binder	binding result [1]	binding result [2]	binding result [3]	binding result [4]	stoichiometry N (cryo-EM structure)
M. smegmatis ATP synthase subunit γ (natural protein) MAATLRELRGRIRSAGSIKKITKAQELIATSRIAKAQARVEAARPYAAEITNMLTELAGASALDHPLLVERKQPKRAGVLVVSSDRGLCGAYNANVLRRAEELFSLLRDEGKDPVLYVVGRKALGYFSFRQRTVVESWTGFSERPTYENAREIADTLVNAFMAGADDEGDDAGADGILGVDELHIVFTEFRSMLSQTAVARRAAPMEVEYVGEVETGPRTLYSFEPDPETLFDALLPRYIATRVYAALLEAAASESASRRRAMKSATDNADDLIKALTLAANRERQAQITQEISEIVGGANALAGSK	binds	binds	–	–	–
B1	–	binds	binds	–	–
M. smegmatis ATP synthase subunit b′ (natural protein) MGEFSATILAASQAAEEGGGGSNFLIPNGTFFAVLIIFLIVLGVISKWVVPPISKVLAEREAMLAKTAADNRKSAEQVAAAQADYEKEMAEARAQASALRDEARAAGRSVVDEKRAQASGEVAQTLTQADQQLSAQGDQVRSGLESSVDGLSAKLASRILGVDVNSGGTQ	–	binds	–	binds	–
B2	binds	binds	–	–	–
M. smegmatis ATP synthase subunit c (natural protein) MDLDPNAIITAGALIGGGLIMGGGAIGAGIGDGIAGNALISGIARQPEAQGRLFTPFFITVGLVEAAYFINLAFMALFVFATPGLQ	–	binds	–	binds	9
B3	binds	–	–	–	–
M. smegmatis ATP synthase subunit ε (natural protein) MADLNVEIVAVERELWSGPATFVFTRTTAGEIGILPRHIPLVAQLVDDAMVRVEREGEDDLRIAVDGGFLSVTEETVRILVENAQFESEIDADAAKEDAASDDERTAAWGRARLRALGQID	–	binds	–	–	–
